This passage reports IC50 results from patent EP2308896A1 (Sanofi-Aventis, dated 2011).

The target in this assay is hRAGE (human, UniProt Q15109 23-342, limits assumed). Kind of assay: competition ELISA, hRAGE-S100B interaction.
Sequence of hRAGE (Q15109 23-342 limits assumed): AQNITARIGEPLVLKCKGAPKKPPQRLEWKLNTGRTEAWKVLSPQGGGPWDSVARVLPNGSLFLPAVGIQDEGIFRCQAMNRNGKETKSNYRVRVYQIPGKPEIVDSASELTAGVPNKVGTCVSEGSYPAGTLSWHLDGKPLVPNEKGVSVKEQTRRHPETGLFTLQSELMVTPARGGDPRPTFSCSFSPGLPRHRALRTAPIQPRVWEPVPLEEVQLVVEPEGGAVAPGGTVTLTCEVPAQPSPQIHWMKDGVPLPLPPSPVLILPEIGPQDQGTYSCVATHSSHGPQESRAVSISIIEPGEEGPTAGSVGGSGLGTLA

B1: 158 RAGE-1 (antibody, V domains shown)
VH: QIQLVQSGPELKKPGETVKISCKASGYTFTDYSMHWVKQAPGKGLKWMGWINTETGEPTYADDFKGRFAFSLETSASTAYLLINNLKTEDTATYFCARDYLYYYAMDYWGQGTSVTVSS
VL: DVVLTQTPLSLPVNIGDQASISCKSTKSLLNSDGFTYLDWYLQKPGQSPQLLIYLVSNRFSGVPDRFSGSGSGTDFTLKISRVEAEDLGVYYCFQSNYLPLTFGGGTKVEIK
notes: Anti-RAGE monoclonal antibody (hybridoma; captured by anti-mouse Fc in Biacore); also called LP08105
B1: the IC50 (in general, the concentration needed to halve the response being measured) was 0.72 nM. That is a sub-nanomolar value.
